Measurements published in patent US20220389077A1, “ALLOGENEIC CELL COMPOSITIONS AND METHODS OF USE” (Poseida Therapeutics, Inc., priority 2018, published 2022).
Substitutions are numbered along the chain they refer to. In names and notes the source's numbering stands. Entries after “also recorded” stand apart in the source; their conditions may differ.

How the values were obtained:
Allo CAR-T cells = experiment: Expansion of Allo CAR-T cells with WT or mutant (D111H) CSR CD2z; assay type: cell-based, human; settings: up to 15-day culture; CSR stable or transient
From the text: FIG. 24A is a bar graph showing that the delivery of CSR CD2z-D111H mutant enhances the expansion of Allo CAR-T cells. Pan T cells isolated from healthy donor blood were genetically modified using the piggyBac® DNA modification system in combination with the Cas-CLOVER™ gene-editing system (CC) for the production of allogeneic (Allo) CAR-T cells, or without CC gene-editing, as a control, for the production of autologous (Auto) CAR-T without a CSR (No CSR); auto CAR-T cells were produced by nucleofection of an mRNA encoding the super piggyBac™ transposase enzyme (SPB) and a transposon encoding a CAR, selection gene and a safety switch. […] Following EP, all cells were subsequently stimulated with a cocktail of agonist mAbs anti-CD2, anti-CD3 and anti-CD28, and were later selected for genetic modification over the course of up to a 15-day culture period using the selection gene. At the end of the initial culture period, all T cells expressed the CAR, indicating successful selection for genetically-modified cells (data not shown), and then all non-edited TCR-positive cells were depleted via negative selection to yield a population of Allo CAR-T cells that were >99% TCR-negative (data not shown).

TCRb and b2M = experiment: Gene editing (knockout of TCR and MHCI) of Allo CAR-T cells with CSR; assay type: cell-based, human; settings: up to 14-day culture; CSR stable or transient
From the text: Pan T cells isolated from healthy donor blood were genetically modified using the piggyBac® DNA modification system in combination with the Cas-CLOVER™ gene-editing system (CC) to produce allogeneic (Allo) CAR-T cells. […] Following EP, all cells were subsequently stimulated with a cocktail of agonist mAbs anti-CD2, anti-CD3 and anti-CD28, and were later selected for genetic modification over the course of up to a 14-day culture period using the selection gene. At the end of the initial culture period, all T cells expressed the CAR, indicating successful selection for genetically-modified cells (data not shown). All samples were performed in duplicate, and data is shown in bar graph where error bars represent standard deviation.

[1] = test system: anti-CD2 activator reagent, anti-CD2 monoclonal antibody (clone TS1/8), anti-CD2 polyclonal antibody reagent; experiment: CSR CD2z mutant surface expression and staining with anti-CD2 antibody reagents in K562 cells; assay type: binding; settings: 9 μg mRNA, next day
Description: FIG. 23A is a bar graph showing CSR CD2z mutant staining data. A panel of CSR CD2z mutants was designed, constructed, and tested for surface expression and binding to several anti-CD2 antibody reagents. To do so, each mutant was synthesized, subcloned into an in-house mRNA production vector, and then high-quality mRNA was produced for each. K562 cells were electroporated with 9 μg of mRNA, and surface-expression of each molecule was analyzed by flow cytometry the next day and data are shown as bar graphs. Each molecule was stained with anti-CD2 activator reagent, anti-CD2 monoclonal antibody (clone TS1/8), or anti-CD2 polyclonal antibody reagent (goat anti-human CD2).
(§1) FIG. 23C is a summary of staining and degranulation data. Data from surface-expression and binding studies, as well as those from degranulation experiments for each CSR CD2z mutant is summarized in the table.

human CD58 = target: T1, human CD58 (Homo sapiens, UniProt P19256); experiment: T cell degranulation (CD107a) against CD58-positive cell targets; assay type: cell-based; settings: 4-6 hours coculture, K562 or Rat2 cells with mRNA encoding human CD58
T1 construct: expressed in transfected cells; host or cells: K562 (electroporated) or Rat2 (lipofected) cells
T1 sequence (P19256 29-250): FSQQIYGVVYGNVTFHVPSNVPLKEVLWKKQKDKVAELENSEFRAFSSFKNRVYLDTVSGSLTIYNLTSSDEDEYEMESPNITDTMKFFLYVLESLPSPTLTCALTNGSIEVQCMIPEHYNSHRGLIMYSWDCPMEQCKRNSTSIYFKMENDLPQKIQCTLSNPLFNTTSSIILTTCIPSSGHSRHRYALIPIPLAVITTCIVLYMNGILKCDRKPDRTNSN
Description: FIG. 23B is a series of bar graphs showing CSR CD2z mutant degranulation data. The panel of CSR CD2z mutants was tested for the capability of mediating degranulation against CD58-positive cell targets. T cell degranulation is a surrogate of T cell killing that can be measured by FACS staining for intracellular CD107a expression following coculture with target cell lines expressing target antigen. Specifically, pan T cells from normal blood donors were stimulated with anti-CD3/anti-CD28 beads in standard T cell culture media, then rested. These cells were then electroporated (BTX ECM 830 electroporator @ 500V for 700 μs) with 9 μg of mRNA expressing CSR CD2z mutants and cultured overnight. The next day, the cells were cocultured for 4-6 hours in the presence of various target cell lines. Positive target cell lines included K562 cells or Rat2 cells that were electroporated or lipofected, respectively, with mRNA encoding human CD58, while negative controls were either Rat2 cells that were not electroporated or CSR CD2z mutant expressing T cells alone.
as §1
FIG. 23D is a series of flow cytometry plots showing the expression of CD48, CD58 or CD59 on K562 and Rat2 cells. To confirm possible ligands for the CSR WT CD2z molecule, a panel of known and suspected ligands including human CD48, CD58, and CD59 were tested. Degranulation of engineered T cells was evaluated against the cell lines K562 and Rat2 that were made to overexpress the target ligands and confirmed for expression by FACS staining. Red histograms are unstained cells and blue histograms are cells that were electroporated/lipofected with mRNA and then stained for expression of the respective marker by FACS.
FIG. 23E is a bar graph showing that CSR CD2z recognizes human CD58, but not CD48 or CD59. To confirm possible ligands for the CSR WT CD2z molecule, a panel of known and suspected ligands including human CD48, CD58, and CD59 were tested. Degranulation of engineered T cells was evaluated against the cell lines K562 and Rat2 that were made to overexpress the target ligands and confirmed for expression by FACS staining. Cells were electroporated/lipofected with mRNA and then stained for expression of the respective marker by FACS. As a control, a BCMA CAR was included as well as a K562 cell line overexpressing BCMA. In addition, T cells transfected with GFP were also included as a control. T cell degranulation is a surrogate of T cell killing that can be measured by FACS staining for intracellular CD107a expression following coculture with target cell lines expressing target antigen. Pan T cells from normal blood donors were stimulated with anti-CD3/anti-CD28 beads in standard T cell culture media, then rested. These T cells were then electroporated with mRNA expressing CSR WT CD2z, BCMA CAR, or GFP and cultured overnight. The next day, the cells were cocultured for 4-6 hours in the presence of the various target cell lines that were electroporate/lipofected with mRNA encoding human CD48, CD58 or CD59, while negative controls were either K562 or Rat2 cells that were not electroporated/lipofected, or each of the electroporated T cells alone.

B1: D111H: mutant CSR CD2z with D111H mutation within the CD2 extracellular domain (SEQ ID NO: 17118) (protein)
chain: MSFPCKFVASFLLIFNVSSKGAVSKEITNALETWGALGQDINLDIPSFQMSDDIDDIKWEKTSDKKKIAQFRKEKETFKEKDTYKLFKNGTLKIKHLKTDDQDIYKVSIYHTKGKNVLEKIFDLKIQERVSKPKISWTCINTTLTCEVMNGTDPELNLYQDGKHLKLSQRVITHKWTTSLSAKFKCTAGNKVSKESSVEPVSCPEKGLDIYLIIGICGGGSLLMVFVALLVFYITKRKKQRSRRNDEELETRAHRVATEERGRKPHQIPASTPQNPATSQHPPPPPGHRSQAPSHRPPPPGHRVQHQPQKRPPAPSGTQVHQQKGPPLPRPRVQPKPPHGAAENSLSPSSNRVKFSRSADAPAYKQGQNQLYNELNLGRREEYDVLDKRRGRDPEMGGKPRRKNPQEGLYNELQKDKMAEAYSEIGMKGERRRGKGHDGLYQGLSTATKDTYDALHMQALPPR
Allo CAR-T cells
  peak expansion of Allo CAR-T cells compared to Allo CAR-T cells produced without a CSR: a greater degree of expansion
TCRb and b2M
  degree of gene editing compared to Allo CAR-T cells produced without a CSR: a similar or greater degree of gene editing
[1]
  surface expression and binding of anti-CD2 staining reagents: strongly bound by all staining reagents
Human CD58
  degranulation (CD107a) against CD58: Little reactivity; also recorded: completely abrogating anti-CD58 degranulation activity

B2: K67R/Y110D: CSR CD2z mutant within the extracellular domain of CD2 (protein)
chain: KEITNALETWGALGQDINLDIPSFQMSDDIDDIKWEKTSDKKRIAQFRKEKETFKEKDTYKLFKNGTLKIKHLKTDDQDIYKVSIDDTKGKNVLEKIFDLKIQERVSKPKISWTCINTTLTCEVMNGTDPELNLYQDGKHLKLSQRVITHKWTTSLSAKFKCTAGNKVSKESSVEPVSCPEKGLDIYLIIGICGGGSLLMVFVALLVFYITKRKKQRSRRNDEELETRAHRVATEERGRKPHQIPASTPQNPATSQHPPPPPGHRSQAPSHRPPPPGHRVQHQPQKRPPAPSGTQVHQQKGPPLPRPRVQPKPPHGAAENSLSPSSNRVKFSRSADAPAYKQGQNQLYNELNLGRREEYDVLDKRRGRDPEMGGKPRRKNPQEGLYNELQKDKMAEAYSEIGMKGERRRGKGHDGLYQGLSTATKDTYDALHMQALPPR
[1]
  surface expression and binding of anti-CD2 staining reagents: expressed on the surface and/or retain binding to the anti-CD2 activator reagent
Human CD58
  degranulation (CD107a) against CD58: Little reactivity
Human CD58; listed as K67R/Y1101D
  degranulation (CD107a) against CD58: do not mediate anti-CD58 degranulation activity

B3: K67R/Q70K/Y110D/D111H: CSR CD2z mutant within the extracellular domain of CD2 (protein)
chain: B2 chain with Q46K, D87H
Human CD58
  degranulation (CD107a) against CD58: Little reactivity

B4: Delta K106-120: CSR CD2z mutant of the panel (protein)
chain: KEITNALETWGALGQDINLDIPSFQMSDDIDDIKWEKTSDKKKIAQFRKEKETFKEKDTYKLFKNGTLKIKHLKTDDQDIYIFDLKIQERVSKPKISWTCINTTLTCEVMNGTDPELNLYQDGKHLKLSQRVITHKWTTSLSAKFKCTAGNKVSKESSVEPVSCPEKGLDIYLIIGICGGGSLLMVFVALLVFYITKRKKQRSRRNDEELETRAHRVATEERGRKPHQIPASTPQNPATSQHPPPPPGHRSQAPSHRPPPPGHRVQHQPQKRPPAPSGTQVHQQKGPPLPRPRVQPKPPHGAAENSLSPSSNRVKFSRSADAPAYKQGQNQLYNELNLGRREEYDVLDKRRGRDPEMGGKPRRKNPQEGLYNELQKDKMAEAYSEIGMKGERRRGKGHDGLYQGLSTATKDTYDALHMQALPPR
Human CD58
  degranulation (CD107a) against CD58: Little reactivity
